# Results reported in paper PMC8522838 (2021).
# B1: SmBiT-MYC 1-190 [human] / TRRAP 2033-2283-LgBiT [not stated] (parent complex)
# chain 1: MPLNVSFTNRNYDLDYDSVQPYFYCDEEENFYQQQQQSELQPPAPSEDIWKKFELLPTPPLSPSRRSGLCSPSYVAVTPFSLRGDNDGGGGSFSTADQLEMVTELLGGDMVNQSFICDPDDETFIKNIIIQDCMWSGFSAAAKLVSEKLASYQAARKDSGSPNPARGHSVCSTSSLYLQDLSAAASECID
# chain 2: NSSGEGVNSVSSSIKRGLSVDSAQEVKRFRTATGAISAVFGRSQSLPGADSLLAKPIDKQHTDTVVNFLIRVACQVNDNTNTAGSPGEVLSRRCVNLLKTALRPDMWPKSELKLQWFDKLLMTVEQPNQVNYGNICTGLEVLSFLLTVLQSPAILSSFKPLQRGIAACMTCGNTKVLRAVHSLLSRLMSIFPTEPSTSSVASKYEELECLYAAVGKVIYEGLTNYEKATNANPSQLFGTLMILKSACSNNP
# Variants of: B1
# Test: luminescence complementation (NanoBiT) in transfected cells; normalized for MYC expression level; parent: 100; read off a plot
row,Variant,percent of parent
1,chain 1 T58I,~102 % RLU to WT
2,chain 1 F138A,~24 % RLU to WT
3,chain 1 W135A,~35 % RLU to WT
4,chain 1 S136A,~77 % RLU to WT
5,chain 1 M134A,~43 % RLU to WT
